According to doi:10.1101/2025.06.28.662095, “Mechanistic insights into the allosteric regulation of cell wall hydrolase RipA in Mycobacterium tuberculosis” (bioRxiv, 2025):

Target: T1, MtRipACAT (catalytic domain of M. tuberculosis RipA, residues 261-472) (Mycobacterium tuberculosis, UniProt O53168 261-472)
T1 construct: also called MtRipA catalytic domain; NlpC/P60 catalytic domain; not shown: 6xHis-SUMO, N-terminal, cleaved
T1 sequence: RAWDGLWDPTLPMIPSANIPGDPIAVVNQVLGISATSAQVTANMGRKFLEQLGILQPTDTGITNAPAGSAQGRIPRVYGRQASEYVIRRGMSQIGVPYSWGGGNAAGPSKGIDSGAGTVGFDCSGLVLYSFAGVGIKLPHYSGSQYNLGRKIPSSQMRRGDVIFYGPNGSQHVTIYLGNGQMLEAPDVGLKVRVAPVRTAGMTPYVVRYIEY
Experiment: BLI; biotinylated MtRipACC immobilised on streptavidin biosensors; 25°C; 25 mM HEPES pH 7.5, 150 mM NaCl, 5% glycerol, BSA 1 mg/mL, 0.05% Tween 20; steady-state signal versus concentration, one-site binding model; apparent Kd
Conditions: both partners purified

B1: MtRipACC (coiled-coil domain of M. tuberculosis RipA, residues 40-240) (domain or fragment)
chain: DPQTDTIAALIADVAKANQRLQDLSDEVQAEQESVNKAMVDVETARDNAAAAEDDLEVSQRAVKDANAAIAAAQHRFDTFAAATYMNGPSVSYLSASSPDEIIATVTAAKTLSASSQAVMANLQRARTERVNTESAARLAKQKADKAAADAKASQDAAVAALTETRRKFDEQREEVQRLAAERDAAQARLQAARLVAWSSE
modifications: biotinylated with EZ-Link NHS-PEG4-Biotin (20 molar excess) for the BLI assays
notes: also called RipA coiled-coil (CC) domain; MtRipA CC domain; not shown: 6xHis-SUMO, N-terminal, cleaved
Kd: 6.8 ± 1.4 µM
